Measurements taken from patent US9163227B2, “Anti-diabetic compounds” (PFIZER INC., priority 2011, dated 2015).
Several values for one entry are separate records, joined by “and”; a condition that tells them apart may be missing. Identical values can stand only once. Like-named read-outs stand apart in the source and are kept apart here. Blank lines part the entries; values can stand above or below the molecule they belong to.

Tests used:
[1] = biological target: Glut1 mRNA expression in differentiated 3T3-L1 adipocytes (Mus musculus, UniProt P16092+Q99N32); experiment: Glut1 Taqman assay; format: cell-based; conditions: for EC50: 6 hrs
Procedure: Differentiated 3T3-L1 adipocytes were used to measure the Glut1 mRNA expression by qPCR method. Overnight serum starved day 10-14 differentiated 3T3-L1 adipocytes were treated with compounds for 6 hrs. Total RNA was extracted from these cells, and Glut1 and GAPDH mRNA expression was measured using a Quantitect Probe RT-PCR kit and running a quantitative real time PCR reaction in a Taqman machine (Applied Biosystems®). The bioactivity of the compounds was determined by a fold change in Glut1 mRNA levels normalized by the GAPDH mRNA levels from each sample. EC═values as measurements of the potency of the compounds were obtained from the dose response curves in the assay.
3T3-L1 adipocytes were seeded at day 8 in 24-well tissue culture plates (Falcon®, Cat#353047), and incubated in DMEM complete medium (10% FBS, 2 mM L-glutamine, 1% P/S) at 37° C., 5% CO2. […] The medium was aspirated, and then RNA extracted from the cells using the RNeasy mini Kit according to the manufacturer's instructions. RNA was measured at A260 nm using the Spectramax® Plus spectrophotometer.
In Glut1 Taqman assay, differentiated 3T3-L1 adipocytes were used to measure the Glut1 mRNA expression by real-time quantitative PCR (qPCR) method described below. Overnight serum starved day 10-14 differentiated 3T3-L1 adipocytes were treated with compounds for 6 hrs. Total RNA was extracted from these cells, and Glut1 and GAPDH mRNA expression was measured using a Quantitect Probe RT-PCR kit and running a real time quantitative PCR reaction in a Taqman machine. The bioactivity of the compounds was determined by a fold change in Glut1 mRNA levels normalized by the GAPDH mRNA levels from each sample. In cAMP assay, Chinese hamster ovary (CHO) cells over-expressing human GLP-1R(CHO-hGLP-1R) were seeded in 96-well plates in serum-free medium with 300 uM IBMX. Cells were incubated with compounds at RT for 1 hr. The cAMP levels were measured using a CisBio cAMP Kit according to manufacturer's instructions. The bioactivity of the compounds was determined by the EC50 values obtained from the assay (see Table 42).

[2] = Mouse pharmacokinetics of FGF21 antibody conjugates; format: in vivo, Swiss-Webster mice; conditions: mice
Procedure: The PK of FGF21 antibody conjugates were examined in mice after IV or SC administration. […] Antibody conjugates concentrations in serum were determined using an ELISA which captured the FGF21 portion of the antibody conjugates through a monoclonal anti-hFGF21 antibody bound to a 96-well plate. FGF21 antibody conjugates bound to the plate were detected through an anti-hFc monoclonal antibody, and concentrations were determined using a standard curve of the PK dosing solution diluted into serum-containing assay buffer. SC bioavailability was calculated as the ratio of the area-under the curve (AUC) of the SC serum concentration profile divided by the AUC of the IV serum concentration profile.

[3] = test system: ob/ob mice; experiment: Oral glucose tolerance test in ob/ob mice (FGF21 conjugates); format: in vivo; conditions: ob/ob mice; for Mean Glucose AUC (% of vehicle control) during OGTT: FIGS. 4A/4B, single SC dose 3 mg/kg
Procedure: (§1) The efficacy of FGF21 antibodies conjugates was evaluated in two murine obese insulin resistant models—ob/ob mice and high-fat diet-induced obese mice. For both models, male mice (6-8 weeks of age for ob/ob, 12-14 weeks of age for DIO with high-fat diet initiated at 6 weeks of age) were housed 2-4/cage and FGF21 antibody conjugates were administered by SC injection. Body weight was measured daily in the morning. Glucose tolerance was assessed by oral glucose tolerance test. Briefly, mice were fasted for 4-5 hrs in the morning of the day of testing. A basal blood sample was obtained and blood glucose levels were determined using a portable glucometer.

[4] = Body weight and liver weight in ob/ob mice; format: in vivo; conditions: single SC dose 3 mg/kg; for Cumulative body weight change, mean body weight: FIG. 5A; for mean liver weight: FIG. 5B
Procedure: as §1

[5] = biological target: differentiated 3T3-L1 adipocytes (Mus musculus, UniProt P16092+Q99N32); experiment: Glucose uptake assay; format: cell-based
Procedure: Differentiated 3T3-L1 adipocytes were treated with compounds in the absence of serum for 24 hrs. Cells were then incubated with ^14C-2-deoxyglucose for 1 hr and glucose uptake into the cells was quantitated in Wallac 1450 MicroBeta (Trilux) instrument. Glucose uptake was expressed in counts per min (CPM). EC50 values as measurements of the potency of the compounds were obtained from the dose response curves in the assay.

[6] = differentiated 3T3-L1 adipocytes, protein or antibody conjugate as labelled, read-out: Glut1 Taqman assay EC50
[7] = 3T3-L1 adipocytes, 24 hrs, unconjugated protein

Glut1 mRNA expression in differentiated 3T3-L1 adipocytes, sequence (P16092 22-822): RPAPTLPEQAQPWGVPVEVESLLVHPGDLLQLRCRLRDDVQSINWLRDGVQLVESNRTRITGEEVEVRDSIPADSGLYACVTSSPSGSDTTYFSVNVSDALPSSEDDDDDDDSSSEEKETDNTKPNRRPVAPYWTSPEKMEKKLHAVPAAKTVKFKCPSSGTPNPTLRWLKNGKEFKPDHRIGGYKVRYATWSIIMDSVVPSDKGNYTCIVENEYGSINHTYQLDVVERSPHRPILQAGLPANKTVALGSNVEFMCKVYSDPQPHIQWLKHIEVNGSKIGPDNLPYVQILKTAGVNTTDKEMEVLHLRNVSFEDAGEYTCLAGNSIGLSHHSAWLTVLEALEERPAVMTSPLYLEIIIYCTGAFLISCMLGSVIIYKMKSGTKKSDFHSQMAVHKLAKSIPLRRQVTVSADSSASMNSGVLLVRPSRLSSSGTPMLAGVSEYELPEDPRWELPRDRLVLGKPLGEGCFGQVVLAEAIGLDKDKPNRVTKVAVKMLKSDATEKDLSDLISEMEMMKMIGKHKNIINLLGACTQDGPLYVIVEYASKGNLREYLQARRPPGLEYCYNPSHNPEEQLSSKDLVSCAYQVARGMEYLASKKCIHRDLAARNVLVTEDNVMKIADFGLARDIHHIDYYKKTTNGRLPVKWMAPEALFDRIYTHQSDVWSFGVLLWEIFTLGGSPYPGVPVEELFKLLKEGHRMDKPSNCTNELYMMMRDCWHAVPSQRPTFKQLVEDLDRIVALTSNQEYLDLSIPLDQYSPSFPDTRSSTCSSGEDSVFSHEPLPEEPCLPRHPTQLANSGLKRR
Glut1 mRNA expression in differentiated 3T3-L1 adipocytes, sequence (Q99N32 whole entry): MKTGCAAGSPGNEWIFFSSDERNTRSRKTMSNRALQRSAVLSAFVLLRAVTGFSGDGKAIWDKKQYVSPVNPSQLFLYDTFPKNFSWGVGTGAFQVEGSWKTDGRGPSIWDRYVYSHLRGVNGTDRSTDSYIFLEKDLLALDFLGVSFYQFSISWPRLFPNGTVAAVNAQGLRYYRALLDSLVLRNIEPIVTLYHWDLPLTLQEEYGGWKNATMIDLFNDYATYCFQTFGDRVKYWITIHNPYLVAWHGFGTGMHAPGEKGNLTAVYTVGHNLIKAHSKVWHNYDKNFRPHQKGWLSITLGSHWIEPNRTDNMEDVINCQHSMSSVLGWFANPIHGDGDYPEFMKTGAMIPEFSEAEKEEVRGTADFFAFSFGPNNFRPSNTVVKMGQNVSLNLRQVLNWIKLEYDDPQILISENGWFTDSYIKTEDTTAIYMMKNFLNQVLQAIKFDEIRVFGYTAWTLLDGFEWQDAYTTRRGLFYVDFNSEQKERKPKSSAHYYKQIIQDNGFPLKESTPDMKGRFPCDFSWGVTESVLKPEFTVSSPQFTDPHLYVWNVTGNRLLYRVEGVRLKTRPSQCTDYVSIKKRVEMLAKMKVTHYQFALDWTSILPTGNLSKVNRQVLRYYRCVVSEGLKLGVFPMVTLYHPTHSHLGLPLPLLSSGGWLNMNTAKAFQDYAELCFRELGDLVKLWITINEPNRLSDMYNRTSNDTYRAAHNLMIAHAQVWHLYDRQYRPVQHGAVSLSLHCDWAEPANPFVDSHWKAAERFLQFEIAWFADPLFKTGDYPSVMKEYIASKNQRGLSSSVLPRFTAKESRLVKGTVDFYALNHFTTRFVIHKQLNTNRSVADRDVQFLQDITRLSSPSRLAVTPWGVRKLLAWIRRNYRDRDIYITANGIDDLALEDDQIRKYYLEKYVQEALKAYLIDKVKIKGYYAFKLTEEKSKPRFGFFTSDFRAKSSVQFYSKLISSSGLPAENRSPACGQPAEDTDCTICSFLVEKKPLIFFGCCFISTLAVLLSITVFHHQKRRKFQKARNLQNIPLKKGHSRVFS
differentiated 3T3-L1 adipocytes, sequence (P16092 22-822): as the sequence (P16092 22-822) above
differentiated 3T3-L1 adipocytes, sequence (Q99N32 whole entry): as the sequence (Q99N32 whole entry) above

B3: FGF21ΔH-A129C: FGF21 cysteine mutant, SEQ ID NO:10 (protein, listed as Homo sapiens)
chain: PIPDSSPLLQFGGQVRQRYLYTDDAQQTEAHLEIREDGTVGGAADQSPESLLQLKALKPGVIQILGVKTSRFLCQRPDGALYGSLHFDPEACSFRELLLEDGYNVYQSEAHGLPLHLPGNKSPHRDPCPRGPARFLPLPGLPPALPEPPGILAPQPPDVGSSDPLSMVGPSQGRSPSYAS
- activity in Glut1 Taqman assay (in words) ([1]; 3T3-L1 adipocytes): dose-dependent Glut1 induction
- EC50 ([1]; 3T3-L1 adipocytes, serum-free DMEM 0.2% BSA, Taqman quantitative real-time PCR, read-out: Glut1 RNA expression EC50): 16 nM
- EC50 [1, 6]: 1.4 nM

B5: FGF21ΔH-Knull-P2: FGF21 lysine-null mutant, SEQ ID NO:22 (protein, listed as Homo sapiens)
chain: PIPDSSPLLQFGGQVRQRYLYTDDAQQTEAHLEIREDGTVGGAADQSPESLLQLRALRPGVIQILGVRTSRFLCQRPDGALYGSLHFDPEACSFRELLLEDGYNVYQSEAHGLPLHLPGNRSPHRDPAPRGPARFLPLPGLPPALPEPPGILAPQPPDVGSSDPLSMVGPSQGRSPSYAS
- EC50 [1, 6]: 1.2 nM

B6: Ab-L5-FGF21ΔH-Knull-S181K: SEQ ID NO:24 combined with L5 at S181K and conjugated with h38C2 (conjugate, listed as Homo sapiens)
chain: PIPDSSPLLQFGGQVRQRYLYTDDAQQTEAHLEIREDGTVGGAADQSPESLLQLRALRPGVIQILGVRTSRFLCQRPDGALYGSLHFDPEACSFRELLLEDGYNVYQSEAHGLPLHLPGNRSPHRDPAPRGPARFLPLPGLPPALPEPPGILAPQPPDVGSSDPLSMVGPSQGRSPSYAK
modifications: L5 linker at K181 conjugated to h38C2 antibody
- EC50 [1, 6]: > 500 nM

B7: Ab-L5-FGF21ΔH-Knull-P2: SEQ ID NO:22 combined at the N' terminus of P2 with L5 and conjugated with h38C2 (conjugate, listed as Homo sapiens)
chain: PIPDSSPLLQFGGQVRQRYLYTDDAQQTEAHLEIREDGTVGGAADQSPESLLQLRALRPGVIQILGVRTSRFLCQRPDGALYGSLHFDPEACSFRELLLEDGYNVYQSEAHGLPLHLPGNRSPHRDPAPRGPARFLPLPGLPPALPEPPGILAPQPPDVGSSDPLSMVGPSQGRSPSYAS
modifications: L5 linker at N-terminus, conjugated to h38C2 antibody
- EC50 [1, 6]: 16.6 nM
- IV half-life [2]: 17 h

B8: FGF21ΔH-H125C: FGF21 cysteine mutant, SEQ ID NO:7 (protein, listed as Homo sapiens)
chain: PIPDSSPLLQFGGQVRQRYLYTDDAQQTEAHLEIREDGTVGGAADQSPESLLQLKALKPGVIQILGVKTSRFLCQRPDGALYGSLHFDPEACSFRELLLEDGYNVYQSEAHGLPLHLPGNKSPCRDPAPRGPARFLPLPGLPPALPEPPGILAPQPPDVGSSDPLSMVGPSQGRSPSYAS
- EC50 [1, 6]: 1.2 nM

B9: FGF21ΔH-Knull-S181K: FGF21 lysine-null mutant with S181K, SEQ ID NO:24 (protein, listed as Homo sapiens)
chain: PIPDSSPLLQFGGQVRQRYLYTDDAQQTEAHLEIREDGTVGGAADQSPESLLQLRALRPGVIQILGVRTSRFLCQRPDGALYGSLHFDPEACSFRELLLEDGYNVYQSEAHGLPLHLPGNRSPHRDPAPRGPARFLPLPGLPPALPEPPGILAPQPPDVGSSDPLSMVGPSQGRSPSYAK
- EC50 [1, 6]: 7.5 nM

B11: Ab-L5-FGF21ΔH-Knull-H1K: SEQ ID NO:23 combined with L5 at H1K and conjugated with h38C2 (conjugate, listed as Homo sapiens)
chain: KPIPDSSPLLQFGGQVRQRYLYTDDAQQTEAHLEIREDGTVGGAADQSPESLLQLRALRPGVIQILGVRTSRFLCQRPDGALYGSLHFDPEACSFRELLLEDGYNVYQSEAHGLPLHLPGNRSPHRDPAPRGPARFLPLPGLPPALPEPPGILAPQPPDVGSSDPLSMVGPSQGRSPSYAS
modifications: L5 linker at K1 conjugated to h38C2 antibody
- Mean Glucose AUC (% of vehicle control) during OGTT [3]: 100 % of vehicle control
- glucose tolerance in ob/ob mice (in words) [3]: compared poorly against Ab-FGF21ΔH-H125C
- Cumulative body weight change, mean body weight [4]: 2.6 g
- mean liver weight [4]: 2.4 g

B12: FGF21ΔH-Knull-H1K: FGF21 lysine-null mutant with H1K, SEQ ID NO:23 (protein, listed as Homo sapiens)
chain: KPIPDSSPLLQFGGQVRQRYLYTDDAQQTEAHLEIREDGTVGGAADQSPESLLQLRALRPGVIQILGVRTSRFLCQRPDGALYGSLHFDPEACSFRELLLEDGYNVYQSEAHGLPLHLPGNRSPHRDPAPRGPARFLPLPGLPPALPEPPGILAPQPPDVGSSDPLSMVGPSQGRSPSYAS
- EC50 [1, 6]: 6.4 nM and 4.3 nM
- IV half-life [2]: 16 h
- SC bioavailability [2]: 51%
- SC half-life [2]: 11 h

Continued, in another order:

- EC50 [1, 6]: 6.5 nM
B1: Ab-L5-FGF21ΔH-K59: SEQ ID NO:19 combined with L5 at K59 and conjugated with h38C2 (conjugate, listed as Homo sapiens)
chain: PIPDSSPLLQFGGQVRQRYLYTDDAQQTEAHLEIREDGTVGGAADQSPESLLQLRALKPGVIQILGVRTSRFLCQRPDGALYGSLHFDPEACSFRELLLEDGYNVYQSEAHGLPLHLPGNRSPHRDPAPRGPARFLPLPGLPPALPEPPGILAPQPPDVGSSDPLSMVGPSQGRSPSYAS
modifications: L5 linker at K59 conjugated to h38C2 antibody
- IV half-life [2]: 13 h
- Mean Glucose AUC (% of vehicle control) during OGTT [3]: 105 % of vehicle control
- Cumulative body weight change, mean body weight [4]: 2.7 g
- mean liver weight [4]: 2.4 g

- EC50 [1, 6]: 0.9 nM
- EC50 [5, 7]: 5.5 nM
B2: FGF21ΔH-K56-K59R-K69R-K122R: FGF21 lysine mutant, SEQ ID NO:18 (protein, listed as Homo sapiens)
chain: PIPDSSPLLQFGGQVRQRYLYTDDAQQTEAHLEIREDGTVGGAADQSPESLLQLKALRPGVIQILGVRTSRFLCQRPDGALYGSLHFDPEACSFRELLLEDGYNVYQSEAHGLPLHLPGNRSPHRDPAPRGPARFLPLPGLPPALPEPPGILAPQPPDVGSSDPLSMVGPSQGRSPSYAS

- EC50 ([5]; unconjugated protein (per Examples 18-21), n in parentheses): 62 nM
B4: FGF21ΔH-L86C: FGF21 cysteine mutant, SEQ ID NO:14 (protein, listed as Homo sapiens)
chain: PIPDSSPLLQFGGQVRQRYLYTDDAQQTEAHLEIREDGTVGGAADQSPESLLQLKALKPGVIQILGVKTSRFLCQRPDGALYGSCHFDPEACSFRELLLEDGYNVYQSEAHGLPLHLPGNKSPHRDPAPRGPARFLPLPGLPPALPEPPGILAPQPPDVGSSDPLSMVGPSQGRSPSYAS

- EC50 [1, 6]: 0.6 nM
- EC50 [5, 7]: 0.9 nM
B10: FGF21ΔH-K56R-K59-K69R-K122R: FGF21 lysine mutant, SEQ ID NO:19 (protein, listed as Homo sapiens)
chain: PIPDSSPLLQFGGQVRQRYLYTDDAQQTEAHLEIREDGTVGGAADQSPESLLQLRALKPGVIQILGVRTSRFLCQRPDGALYGSLHFDPEACSFRELLLEDGYNVYQSEAHGLPLHLPGNRSPHRDPAPRGPARFLPLPGLPPALPEPPGILAPQPPDVGSSDPLSMVGPSQGRSPSYAS
